From patent US20220396758A1 (University of California, published 2022)

Target: T1, covalently-linked trimer of an N-terminal truncated ClpX variant (ClpX-ΔN3) (E. coli, UniProt A7ZIJ6 62-424)
T1 construct: About 30-100 nM was present in the trans solution with ATP; also called synthetically designed trimer of ClpX subunits expressed as a single chain
Test: nanopore ionic current recording; substrate cis, ClpX/ATP trans

B1: substrate protein S1 (single N-terminal Smt3 domain, 65-amino-acid charged flexible tail, C-terminal 11 amino acid ssrA tag) (other)
chain: MGSSHHHHHHGSGLVPRGSASMSDSEVNQEAKPEVKPEVKPETHINLKVSDGSSEIFFKIKKTTPLRRLMEAFAKRQGKEMDSLRFLYDGIRIQADQTPEDLDMEDNDIIEAHREQIGGGGSSGGSGGSGSSGDGGSSGGSGGSGSSGDGGSSGGSGGDGSSGDGGSDGDSDGSDGDGDSDGDDAANDENYALAA
notes: Engineered fusion expressed in E. coli BL21 (DE3)*; About 1-2 uM was added to the cis well; also called engineered Smt3 protein
  binding result: binds
